Measurements taken from paper PMC7530888 (Nucleic Acids Research, 2020).

Assays:
[1] = format: physicochemical, M. tuberculosis; conditions: Superdex 200 increase 10/30; pH 8.0; calibrated with protein standards
[2] = Small angle X-ray scattering; format: physicochemical, M. tuberculosis; conditions: from P(r); for Dmax: BM29 ESRF, 10°C, pH 8.0
MtbXthA [3] = test: Effect on AP-endonuclease activity of MtbXthA; format: biochemical, M. tuberculosis; conditions: N1, MtbXthA 10 nM, added protein 5-100 nM; pH 7.8, 37°C, 10 min
mimic DNA substrate (L3) = test: Ligation of true incised abasic site mimic with 5′-dRP; format: biochemical; conditions: L3 treated with uracil DNA glycosylase; MtbLigA 0.01-20 nM
[4] = tested on: apurinic/ apyrimidinic DNA (AP-DNA) substrate (N1); test: AP-endonuclease assay on THF AP-DNA; format: biochemical; conditions: no MtbXthA
MtbXthA [5] = test: SEC co-elution with MtbXthA; format: binding, M. tuberculosis; conditions: Superdex 200; pH 8.0; SDS-PAGE of fractions
[6] = tested on: nicked duplex DNA substrate (L1); test: In vitro ligation of nicked duplex DNA; format: biochemical; conditions: L1 10 nM, MtbLigA 5 nM alone; 50 μM NAD^+, pH 7.8, 37°C, 3 min; SD ±2.5
[7] = tested on: nicked duplex DNA substrate (L2); test: Ligation of nicked AP-DNA with 5′p-THF; format: biochemical; conditions: L2 10 nM, MtbLigA 0.01-20 nM
MtbXthA^ID = test: Effect on endonuclease activity of MtbXthA^ID; format: biochemical, M. tuberculosis; conditions: N1 20 nM, MtbXthA^ID 10 nM, MtbLigA 5-100 nM
[8] = tested on: THF containing AP-DNA (N1); test: Gel shift assay, THF AP-DNA; format: binding; conditions: N1 10 nM, MtbLigA 0-40 µM

Substance | Stoke's radii [1] [nm] | Dmax [2] [nm] | effect on AP-endonuclease activity of MtbXthA (MtbXthA [3]) | ligated product (in words) (mimic DNA substrate (L3)) | effect on AP-DNA substrate alone (in words) [4] | interaction with MtbXthA by SEC (MtbXthA [5]) | DNA ligation [6] [%] | ligation of nicked AP-DNA (in words) [7] | effect on incision activity of MtbXthA^ID (MtbXthA^ID) | Dmax in presence of nicked DNA ([2]; presence of nicked DNA substrate (S1)) [nm] | complex with THF AP-DNA (in words) [8]
MtbLigA+Nicked DNA: MtbLigA in complex with 27-mer nicked DNA (S1) | 3.19 | 14.79 | – | – | – | – | – | – | – | – | –
BSA: BSA, control for macromolecular crowding [reference compound] | – | – | exerted no effect | – | – | – | – | – | – | – | –
MtbLigA: M. tuberculosis NAD^+-dependent DNA ligase A, full-length | 4.02 | 16.7 | progressive decrease in product formation | progressive increase in the ligated product | no effect on the AP-DNA substrate | co-eluted | 75 | could ligate the nicked AP-DNA | reduction in incision activity | 14.79 | did not form a complex with THF containing AP-DNA
